Blank lines part the entries; values can stand above or below the binder they belong to.
Key:
[1] = biological target: T1, Myxococcus xanthus DK1622 trigger factor Tig (MXAN_2013), His- or MBP-tagged, for pulldown (Myxococcus xanthus DK1622, UniProt Q1DAT1 1-425); test: pull-down; purified His-tagged and MBP-tagged proteins mixed, room temperature 30 min, passed through Ni-NTA resin (His-tagged protein held), washed with suspension buffer, eluted with 250 mM imidazole; MBP mixed with His-labeled protein as negative control; settings: both partners purified
T1 construct: ribosome-associated molecular chaperone trigger factor, Myxococcus xanthus DK1622, locus MXAN_2013; source: E. coli BL21, purified (Ni Sepharose for His tag, maltose elution for MBP)
T1 sequence (looked up): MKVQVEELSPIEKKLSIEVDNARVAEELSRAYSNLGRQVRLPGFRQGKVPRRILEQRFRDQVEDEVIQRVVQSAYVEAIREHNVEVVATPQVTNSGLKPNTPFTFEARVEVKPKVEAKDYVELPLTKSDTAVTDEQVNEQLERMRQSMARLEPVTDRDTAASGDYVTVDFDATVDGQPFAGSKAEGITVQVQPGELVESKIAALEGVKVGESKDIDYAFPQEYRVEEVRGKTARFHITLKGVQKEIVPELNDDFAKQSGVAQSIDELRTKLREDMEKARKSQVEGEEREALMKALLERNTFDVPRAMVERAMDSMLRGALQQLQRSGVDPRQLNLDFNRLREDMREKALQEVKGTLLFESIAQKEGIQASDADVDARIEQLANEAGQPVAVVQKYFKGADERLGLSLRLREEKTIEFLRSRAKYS

[2] = biological target: the molecule itself; test: cross-linking; 20 µM ClpP1 or ClpP2 in 20 mM HEPES, 100 mM NaCl, 1 mM EDTA, pH 7.5, 25°C; glutaraldehyde (0.1% in methods, 1% in legend) 10 min, quenched with 200 mM Tris-HCl pH 7.5; SDS-PAGE

binding result [1]: binds
B1: Myxococcus xanthus DK1622 ClpP1 (MXAN_2014), His- or MBP-tagged, for pulldown (enzyme)
chain: not shown
notes: ClpP1, peptidase subunit of ClpXP, Myxococcus xanthus DK1622, locus MXAN_2014; source: E. coli BL21, purified (Ni Sepharose for His tag, maltose elution for MBP)

B2: Myxococcus xanthus DK1622 ClpP1 (MXAN_2014), no tag (enzyme)
chain: not shown
notes: ClpP1, peptidase subunit of ClpXP, Myxococcus xanthus DK1622, locus MXAN_2014; also called nonlabeled ClpP1; nontagged ClpP1; source: E. coli BL21, purified; copies: 14
stoichiometry N [2]: 14
